In the nanobody polyreactivity screen of Harvey et al. (2022):

Test: yeast display, Sf9 membrane polyspecificity reagent, FACS + sequencing; frameworks hold sequencing errors
In short: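 Galactose induction of a Saccharomyces cerevisiae BJ5465 synthetic nanobody display library ran 36–48 hours. The cells were then stained for 1 hour at 4 °C with 10% biotinylated, detergent-solubilized Sf9 membrane reagent, pulled down on streptavidin microbeads and FACS-sorted into low and high (top ~1%) gates on expression and reagent-binding fluorescence. Labels for polyreactivity follow the gate of origin.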

Sequence	polyreactivity (PSR sort gate)
QVQLVESGGGLVQAGGSLRLSCAASGRIFGRYAMGRYRRAPGKESEFVAAIDGGGGRTYADSVKGRFTISRDNAKNTVYLQMNSLKPEDTAVYYCNAYVYSIHWGDLYWSEYDYWGQGTQVTVSS	high polyreactivity
QVQLVESGGGLVQAGGSLRLSCAASGRIFGRYAMGWYIQAPGKERELVAAISRSGGITYYADSVKGRFTISRDNAKNTVYLQMNSLKPEDTAVYYCAAYRAGNSYYPRLNYWGQGTQVTVSS	high polyreactivity
QVQLVESGGGLVQAGGSLRLSCAASGRIFGRYAMGWYRQAPGKEREFVAAISWRGGTTYYADSVKGRFTISRDNAKNTVYLQMNSLKPEDTAVYYCNARYQTGGYGYWGQGTQVTVSS	high polyreactivity
QVQLVESGGGLVQAGGSLRLSCAASGRIFGRYAMGWYRQAPGKERELVAAISSRGSRTYYADSVKGRFTISRDNAKNTVYLQMNSLKPEDTAVYYCAATWLSNPSDYDYWGPGTQVTVSS	high polyreactivity
QVQLVESGGGLVQAGGSLRLSCAASGRIFGRYAMGWYRQAPGKEREVVATITRNGGGTYADSVKGRFTISRDNAKNTVYLQMNSLKPEDTAVYYCAVDTAAAWERRGFDSWGQGTQVTVSS	low polyreactivity
QVQLVESGGGLVQAGGSLRLSCAASGRIFGRYTMGWYRQAPGKERELVAAISARGGSTYYADSVKGRFTISRDNAKNTVYLQMNSLKPEDTAVYYCDAEYVVWYLDRFNYWGQGTQVTVSS	high polyreactivity
QVQLVESGGGLVQAGGSLRLSCAASGRIFGRYVMGWYRQAPGKERELVARIRRNGGSTYYADSVKGRFTISRDNAKNTVYLQMNSLKPDDTAVYDCAAESYDTWRRYESWGQGTQVTVSS	high polyreactivity
QVQLVESGGGLVQAGGSLRLSCAASGRIFGSYALGWYRQAPGKERELVAAISSGGSTSYADSVKGRFTISRDNAKNTVYLQMNSLKPEDTAVDYCNRLRLFRGRGDYWGQGTQVTVSS	high polyreactivity
QVQLVESGGGLVQAGGSLRLSCAASGRIFGSYAMGWYRQAPGKERELVAVITKRGDSTYYADSVKGRFTISRDNAKNTVYLQMNSLKPEDTAVYYCNAGRVYYSNGYDYWGQGSQVTVSS	low polyreactivity
QVQLVESGGGLVQAGGSLRLSCAASGRIFGSYTMGWYRQAPGKERELVAGISRRGGSTYYADSVKGRFTISRDNAKNTVYLQMNGLKPEDTAVYYCAAVSSVFSVRYDYWGQGTQVTVSS	high polyreactivity
QVQLVESGGGLVQAGGSLRLSCAASGRIFGSYVMGWYRQAPGKERELVAAISYSGGRTYYADSVKGRFTISRDNAKNTVYLQMNSLKPEDTAVYYCAKESSGSRYQYYYWGQGTQVTVSS	high polyreactivity
QVQLVESGGGLVQAGGSLRLSCAASGRIFGTNAMGWYRQAPGKERELVADITSGGSTNYADSVKGRFTISRDNAKNTVYLQMNSLKPEDTAVYDCAADVIGDLRWYRDEYWGQGTQVTVSS	low polyreactivity
QVQLVESGGGLVQAGGSLRLSCAASGRIFGTNARGWYRQAPGKERELVADITSGGSTNYADSVKGRFTISRDNAKNTVYLQMNSLKPEDTAVYYCAADVIGDLRWYRDEYWGQGTQVTVSS	low polyreactivity
QVQLVESGGGLVQAGGSLRLSCAASGRIFGVNAMGWYRPSPGKERELVADISSGGSTNYADSVKGRFTISRDNAKNTVYLQMNSLKPEDTAVYYCNARFRFRYKFPSRNSWGQGTQVTVSS	high polyreactivity
QVQLVESGGGLVQAGGSLRLSCAASGRIFGVNAMGWYRQAPGKERELVAAITRRGGSTYADSVKGRFTISRDNAKNTVYLQMNSLKPEDTAVYYCNAESYYGIFRYKYDYWGQGTQVTVSS	high polyreactivity
QVQLVESGGGLVQAGGSLRLSCAASGRIFGVYAMGWSRQAPGKERELVAAITARGGSTYYADSVKGRFTISRDNAKNTVYLQMNSLKPEDTAVYYCNAARSTSRPYDYWGQGTQVTVSS	high polyreactivity
QVQLVESGGGLVQAGGSLRLSCAASGRIFGVYAMGWYRPAPGKERELVAGINGGDSTYYADSVKGRFTISRDNAKNTVYLQMNSLKPEDTAVYYCAAEADESGSNYDYWGQGTQVTVSS	low polyreactivity
QVQLVESGGGLVQAGGSLRLSCAASGRIFGVYAMGWYRQAPGKDRELVAAITSSGGRTYYADSVKGRFTISRDNAKNTVYLQMNSLKPEDTGVYYCAALGWSRRGKFNYWGQGTQVTVSS	high polyreactivity
QVQLVESGGGLVQAGGSLRLSCAASGRIFGVYAMGWYRQAPGKERELVAAISRGGSTKYADSVKGRFTISRDNAKNTVYLQMNSLKPEDTAVYYCAARRWGRVYTTYTGGYWGQGTQVTVSS	high polyreactivity
QVQLVESGGGLVQAGGSLRLSCAASGRIFGVYAMGWYRQAPGKERELVAAITFNAGSTYYADSVKGRFTISRDNAKNTVYLQMNSLIPEDTAVYYCNAYTESWYPIYFFGWSYTDVDYWGQGTQVTVSS	low polyreactivity
QVQLVESGGGLVQAGGSLRLSCAASGRIFGWYTMGWYRQAPGKERELVAVISSGGSTNYADSVKGRFTISRDNAKNTVYLQMNSLKPEDTAVYYCAAGGQGGDFGDDYWGQGTQVTVSS	high polyreactivity
QVQLVESGGGLVQAGGSLRLSCAASGRIFGYNAMGWYREAPGKERELVAAITGSGGSTYYADSVKGRFTISRDNAKNTVYLQMNSLKPEDTAVYYFATAYAVYHVEYGYWGQGTQVTVSS	low polyreactivity
QVQLVESGGGLVQAGGSLRLSCAASGRIFGYNAMGWYRPAPGKEREVVAAISWNGGSTYYADSVKGRFTISRDNAKNTVYLQMNSLKPEDTAVYYCNADPSDRRYPHTWTKMGYWGQGTQVTVSS	low polyreactivity
QVQLVESGGGLVQAGGSLRLSCAASGRIFGYNAMGWYRQAPGKERELVAAITNGGSTNYADSVKGRFTISRDNAKNTVYLQMNSLKPEDTAVYYCVAYVGSTYSAPEYYWGQGTQVTVSS	low polyreactivity
QVQLVESGGGLVQAGGSLRLSCAASGRIFGYNDMGLYRQAPGKERELVAAINWTGGSTYYADSVKGRFTISRDNAKNTVYLQMNSLKPEDTAVYYCNADARTKWVQTHTDFITDYDYWGQGTQVTVSS	low polyreactivity
QVQLVESGGGLVQAGGSLRLSCAASGRIFGYNGMGWYRQAPGKERELVAAITSGGRTYYADSVKGRFTISRDNAKNTVYLQMNSLKPEDTAVYYCAAYFYQRGYGYVGPYGYWGQGTQVTVSS	high polyreactivity
QVQLVESGGGLVQAGGSLRLSCAASGRIFGYNVMGWYRQAPGKERELVAAISYSGGSTYYADSVKGRFTISRDNAKNTVYLQMNSLKPEDTAVYYCNAGYRGSSKYNYWGQGTQVTVSS	high polyreactivity
QVQLVESGGGLVQAGGSLRLSCAASGRIFGYTMGWYRQAPGKERELVAAISKSGGSTYYADSVKGRFTISRDNAMNTVYLQMNSLKPEDTAVYYCNKPQRILYDYWGQGTQVTVSS	high polyreactivity
QVQLVESGGGLVQAGGSLRLSCAASGRIFGYYAMGWSRQAPGKEREFVAAINWRGSSTTYADSVKGRFTISRDNAKNTVYLQMNSLKPEDTAVYYCKRVFGGGQWVYGYWGQGTQVTVSS	high polyreactivity
QVQLVESGGGLVQAGGSLRLSCAASGRIFGYYAMGWYRQAPGKERELVAAIRWSSGRTYYADSVKGRFTISRDNAKNTVYLQMNSLKPEDTAVYYCAKDGGLRKFDYWGQGTQVTVSS	high polyreactivity
